What was measured:
THP1 cells = test: Immunoblotting of AmTARS/TLR2-induced signaling molecules in THP1 cells; assay type: cell-based, human
Experimental: (A and B) Analysis of key molecules that inhibit the MAPK and PI3K/AKT signaling pathways. IL-10 produced by BMDMs pre-treated with inhibitors of ERK (PD98059, […]), p38 (SB203580, […]), MSK1/2 (SB747651A, 10 μM), CREB (666-15, 1 μM), PI3K (Wortmannin, 10 μM), and AKT1/2 (AKT1/2, 10 μM) for 1 h before treatment with either PBS or AmTARS for 24 h (n=6 per group) (A). Flow cytometry analysis of M2 macrophages in BMDMs pre-treated for 1 h with the indicated kinase inhibitors, before treatment with either PBS or AmTARS for 24 h (n=3 per group) (B). (C and D) Western blot analysis of MAPK signaling molecules in lysates of BMDMs (C) or THP1 cells (D) treated for different times with 0.5 μM AmTARS. (E) Western blot analysis of lysates of BMDMs pre-treated with α-IgG (Isotype, 1 μg ml-1) or α-TLR2 (1 μg ml-1) for 1 h before treatment with PBS, AmTARS (0.5 μM), or Pam3 (0.5 μM) for 30 min. (F and G) Western blot analysis of PI3K/AKT signaling molecules in lysates of BMDMs (F) or THP1 cells (G) treated with 0.5 μM AmTARS. (H) AmTARS activates both TLR2/1- and TLR2/6-mediated signaling. Activation of AKT, ERK, and CREB was measured by western blot analysis of lysates of THP1 cells pre-treated with α-IgG, α-TLR1, α-TLR2, or α-TLR6 (1 μg ml-1) for 1 h before treatment for 30 min with PBS or AmTARS (0.5 µM). Data shown in (A and B) are representative of three independent experiments, each with similar results (mean±SEM). P-values were calculated using an unpaired two-tailed Student's t-test. Data shown in (C-H) are representative and repeated at least three times.
Subsequently, we conducted immunoblotting assays to measure the time-dependent activation of AmTARS/TLR2-induced signaling molecules in both BMDMs and THP1 cells. AmTARS rapidly activated ERK, p38, and MSK1/2 within 15 min and, subsequently, phosphorylation of CREB at Ser133 (which is essential for IL-10 production) within 30 min in BMDMs (FIG. 31C) and THP1 cells (FIG. 31D). We then compared AmTARS-triggered TLR2 signaling with typical ligand-triggered signaling using Pam3CSK4 (the synthetic canonical TLR2/1 agonist, referred to hereafter as Pam3) in BMDMs stimulated for 30 min. […] By contrast, activation of NF-κB was greater in Pam3-treated BMDMs than in AmTARS-treated BMDMs (FIG. 31E).

mouse adipocyte 3T3-L1 = test: Immunoblot of insulin signaling in 3T3-L1 with PMA or TNF-α induced inflammation; assay type: cell-based; conditions: 0.5 μM AmTARS
Experimental: Next, to determine whether the anti-inflammatory function of AmTARS affected the regulation of metabolic disease-associated intracellular signaling, immunoblot analysis was performed using the mouse adipocyte 3T3-L1.
Specifically, 3T3-L1 cells were cultured in DMEM containing 10% bovine calf serum (BCS) and antibiotics under conditions of 5% CO2 and 37° C. The cells were treated with 2 μM phorbol 12-myristate 13-acetate (PMA) or 20 ng/ml TNF-α to create an inflammatory environment in the cultured cells. The cells were treated with 100 nM insulin and 0.5 μM AmTARS for 24 h, and then changes in intracellular signaling were investigated.

B1: Akkermansia muciniphila-derived threonyl-tRNA synthetase (TARS) (protein)
chain: MSEHKERKTLEERQQMSDLERLRHSCAHVLATAICRLWPDAQLAGGPAVDNGFYYDVELDHRISTEDFERIEEEMKKVVKENQVFQKEVISRADAMKMAESGELGALGPRSEPSRFKIDLLNDIPEDEEISLYRNGDFTDLCAGPHVGRTGNCKAFKIMSVASAFYKGDKNRPMLQRIYGTCFPNRTQLDEHLERLEEARRRDHRKLGRELGLFCIDESVGQGLILWKPKGALIRRSLQDFITEELDKLGYSQVYTPNIGKLDLYRTSGHFPYYQESQYAPIPERDAMEKLSQEGASCAELFNGLATGTIEGYMLKPMNCPHHIKIYANDAHSYRDLPVRLAEFGTVYRWEQSGELGGMTRVRGFTQDDAHIFCTPDQLAGEIRQCLGIVKTIFGTLGMTDYRVRLSMRDPESDKYVGSPENWDKAEQALREAAEWLGADYSEEAGEAAFYGPKIDFIVRDAIGREWQLGTVQVDYNLPERFDLHYTGADNKPHRPVMVHRAPFGSMERFTGLLIEHFEGKFPTWLSPEQVRVLPISDKVTDVAAAHRTALAARGVRVTVDETPDKIGAKIRNARLDRVPYMLVLGQREAEDGTVSVRHRDKGDLGAMPFEQFADLVAREIAERHISPVI
modifications: Akkermansia muciniphila TARS
time to activation of AKT (THP1 cells; 0.5 μM AmTARS): ≤ 15 min
time to activation of ERK (THP1 cells; 0.5 μM AmTARS): ≤ 15 min
time to activation of MSK1/2 (THP1 cells; 0.5 μM AmTARS): ≤ 15 min
time to activation of PI3K (THP1 cells; 0.5 μM AmTARS): ≤ 15 min
time to activation of p38 (THP1 cells; 0.5 μM AmTARS): ≤ 15 min
time to inhibition of GSK3β activity (phosphorylation at Ser9) (THP1 cells; 0.5 μM AmTARS): ≤ 15 min
time to phosphorylation of CREB at Ser133 (THP1 cells; 0.5 μM AmTARS): ≤ 30 min
AmTARS-induced TLR2 signaling (AKT, ERK, CREB) after antibody pre-treatment (THP1 cells; α-TLR1, α-TLR2 or α-TLR6 1 μg ml-1 1 h, then AmTARS 0.5 μM 30 min): shut down by antibodies targeting TLR1, TLR6, and TLR2
phosphorylation of protein kinase B (AKT) (mouse adipocyte 3T3-L1; 3T3-L1, 100 nM insulin and 2 μM PMA, 24 h): again increased the phosphorylation
S6 kinase (S6K) (mouse adipocyte 3T3-L1; 3T3-L1, TNF-α, insulin): phosphorylated and activated
glycogen synthase kinase (GSK)-3β (mouse adipocyte 3T3-L1; 3T3-L1, TNF-α, insulin): phosphorylated and inhibited
insulin receptor substrate (IRS) (mouse adipocyte 3T3-L1; 3T3-L1, TNF-α, insulin): no significant change
phosphorylation of AKT (mouse adipocyte 3T3-L1; 3T3-L1, insulin resistance induced by 20 ng/ml TNF-α, 100 nM insulin): increased the phosphorylation

— US12636342B2, “TARS derived from Akkermansia muciniphila or fragment thereof, and use thereof” (KOREA RESEARCH INSTITUTE OF BIOSCIENCE AND BIOTECHNOLOGY, priority 2020, dated 2026)
